Data from paper PMC9100253 (International Journal of Molecular Sciences, 2022).

Columns and labels:
CTX-M-15 [1] = target: T1, CTX-M-15 (Escherichia coli, UniProt A0A5R8T042, S73A); assay: biochemical
T1 construct: gene bla

[2] = tested on: CC1(C)S[C@@H]2[C@H](NC(=O)[C@H](N)c3ccccc3)C(=O)N2[C@H]1C(=O)O; assay: purified protein; assay type: biochemical, Escherichia coli; settings: PBS pH 7.4, 10 nM enzyme, acyl-enzyme structure, covalent
[3] = tested on: CO/N=C(\C(=O)N[C@@H]1C(=O)N2C(C(=O)O)=C(CS)CS[C@H]12)c1csc(N)n1; assay: purified protein; assay type: biochemical, Escherichia coli; settings: PBS pH 7.4, 10 nM enzyme, acyl-enzyme structure, covalent
[4] = tested on: CO/N=C(\C(=O)N[C@@H]1C(=O)N2C(C(=O)O)=C(CSC(=O)c3ccco3)CS[C@H]12)c1csc(N)n1; assay: purified protein; assay type: biochemical, Escherichia coli; settings: PBS pH 7.4, 10 nM enzyme
[5] = tested on: O=C(Cc1cccs1)N[C@@H]1C(=O)N2C(C(=O)O)=C(/C=C/c3ccc([N+](=O)[O-])cc3[N+](=O)[O-])CS[C@H]12; assay: purified protein; assay type: biochemical, Escherichia coli; settings: PBS pH 7.4, 10 nM enzyme
CTX-M-15 [6] = target: T2, CTX-M-15 (Escherichia coli, UniProt A0A5R8T042); assay: inhibition of ceftiofur hydrolysis, absorbance; assay type: biochemical
T2 construct: gene bla; blaCTX-M-15 in pET200 TOPO, E. coli BL21(DE3); DEAE and hydroxyapatite purification; three molecules per asymmetric unit

In the case of `CO/N=C(\C(=O)N[C@@H]1C(=O)N2C(C(=O)O)=C(CSC(=O)c3ccco3)CS[C@H]12)c1csc(N)n1` [ceftiofur], the Kd (CTX-M-15 [1]) is reported as 38.2 µM.
Work on `CC1(C)S[C@@H]2[C@H](NC(=O)[C@H](N)c3ccccc3)C(=O)N2[C@H]1C(=O)O` [ampicillin] yielded a Kd (CTX-M-15 [1]) of 28.8 µM.
For CTX-M-15 (Escherichia coli O25b:H4), the Km [2] was 197.8 ± 13.0 µM, the Vmax [2] was 60.6 µmol/min and the kcat [2] was 102 ± 5.6 s⁻¹. It also gave a kcat/Km [2] of 520000 ± 10000 M⁻¹ s⁻¹, a Km [3] of 141.2 ± 11.2 µM and a Vmax [3] of 293 µmol/min. It also gave a kcat [3] of 490 ± 16.2 s⁻¹, a kcat/Km [3] of 3.46e+06 ± 140000 M⁻¹ s⁻¹ and a Km [4] of 330.0 ± 14.1 µM. The Vmax [4] was 188 µmol/min, the kcat [4] was 314 ± 13 s⁻¹ and the kcat/Km [4] was 950000 ± 10000 M⁻¹ s⁻¹. The Km [5] was 1047.0 ± 75.8 µM and the Vmax [5] was 203 µmol/min.
In the case of `CO/N=C(\C(=O)N[C@@H]1C(=O)N2C(C(=O)O)=C(CS)CS[C@H]12)c1csc(N)n1` [desfuroylceftiofur], the Kd (CTX-M-15 [1]) is reported as 10.7 µM.
For `O=C(O)[C@H]1/C(=C/CO)O[C@@H]2CC(=O)N21` [clavulanic acid], the Ki (CTX-M-15 [6]) was 0.022 ± 0.007 µM and the Kd (CTX-M-15 [1]) was 289 µM.
`O=C(Cc1cccs1)N[C@@H]1C(=O)N2C(C(=O)O)=C(/C=C/c3ccc([N+](=O)[O-])cc3[N+](=O)[O-])CS[C@H]12` [nitrocefin] was tested, and the Kd (CTX-M-15 [1]) was 71.3 µM.
